Experimental data reported in US20120237528A1 (Janssen / Centocor, published 2012).

B1: M1583 (antibody, V domains shown)
VH: EVQLVQSGAEVKKPGESLRISCKGSGYTFGPYWIEWVRQMPGKGLEWMGDIIPGSGWTNYSPSFQGHVTISADKSISTAYLQWSSLKASDTAMYYCARSGYYGNSGFAYWGQGTLVTVSS
VL: DIVMTQTPLSLPVTPGEPASISCKSSQSLLSSGNQKNYLTWYLQKPGQSPQLLIYWASTRESGVPDRFSGSGSGTDFTLKISRVEAEDVGVYYCQNDYTYPLTFGQGTKLEIK
notes: complete MAb; FR4 is its own entry; also called H177/L3
B2: M1591 (antibody, V domains shown)
VH: EVQLVQSGAEVKKPGESLRISCKGSGYTFRPYWIEWVRQMPGKGLEWMGDIIPGTGYTNYSPSFQGHVTISADKSISTAYLQWSSLKASDTAMYYCARSGYYGNSGFAYWGQGTLVTVSS
VL: DIVMTQTPLSLPVTPGEPASISCKSSQSLLSSGNQKNYLTWYLQKPGQSPQLLIYWASTRESGVPDRFSGSGSGTDFTLKISRVEAEDVGVYYCQNDYTYPLTFGQGTKLEIK
notes: complete MAb; FR4 is its own entry; also called H122/L3
B3: M1585 (antibody, V domains shown)
VH: EVQLVQSGAEVKKPGESLRISCKGSGYTFSPFWIEWVRQMPGKGLEWMGDIIPGTGYTNYSPSFQGHVTISADKSISTAYLQWSSLKASDTAMYYCARSGYYGNSGFAYWGQGTLVTVSS
VL: DIVMTQTPLSLPVTPGEPASISCKSSQSLLSSGNQKNYLTWYLQKPGQSPQLLIYWASTRESGVPDRFSGSGSGTDFTLKISRVEAEDVGVYYCQNDYTYPLTFGQGTKLEIK
notes: complete MAb; FR4 is its own entry; also called H139/L3
B4: M1646 (antibody, V domains shown)
VH: EVQLVQSGAEVKKPGESLRISCKGSGYTFAPYWIEWVRQMPGKGLEWMGDILPGTGFTTYSPSFQGHVTISADKSISTAYLQWSSLKASDTAMYYCARSGYYGNSGFAYWGQGTLVTVSS
VL: DIVMTQTPLSLPVTPGEPASISCKSSQSLLWFVNQKNYLTWYLQKPGQSPQLLIYHASTRESGVPDRFSGSGSGTDFTLKISRVEAEDVGVYYCQNDDSYPLTFGQGTKLEIK
notes: complete MAb; FR4 is its own entry; also called H171/L138
B5: M1596 (antibody, V domains shown)
VH: EVQLVQSGAEVKKPGESLRISCKGSGYTFTPYWIEWVRQMPGKGLEWMGDILPGSGHTTYSPSFQGHVTISADKSISTAYLQWSSLKASDTAMYYCARSGYYGNSGFAYWGQGTLVTVSS
VL: DIVMTQTPLSLPVTPGEPASISCKSSQSLLSSGNQKNYLTWYLQKPGQSPQLLIYWASTRESGVPDRFSGSGSGTDFTLKISRVEAEDVGVYYCQNDYTYPLTFGQGTKLEIK
notes: complete MAb; FR4 is its own entry; also called H185/L3
B6: M1652 (antibody, V domains shown)
VH: EVQLVQSGAEVKKPGESLRISCKGSGYTFAPYWIEWVRQMPGKGLEWMGDILPGTGFTTYSPSFQGHVTISADKSISTAYLQWSSLKASDTAMYYCARSGYYGNSGFAYWGQGTLVTVSS
VL: DIVMTQTPLSLPVTPGEPASISCKSSQSLLFRPTQKNYLTWYLQKPGQSPQLLIYWASTRESGVPDRFSGSGSGTDFTLKISRVEAEDVGVYYCQNDDSYPLTFGQGTKLEIK
notes: complete MAb; FR4 is its own entry; also called H171/L225
B7: M1590 (antibody, V domains shown)
VH: EVQLVQSGAEVKKPGESLRISCKGSGYTFLPYWIEWVRQMPGKGLEWMGDIIPGTGFTNYSPSFQGHVTISADKSISTAYLQWSSLKASDTAMYYCARSGYYGNSGFAYWGQGTLVTVSS
VL: DIVMTQTPLSLPVTPGEPASISCKSSQSLLSSGNQKNYLTWYLQKPGQSPQLLIYWASTRESGVPDRFSGSGSGTDFTLKISRVEAEDVGVYYCQNDYTYPLTFGQGTKLEIK
notes: complete MAb; FR4 is its own entry; also called H117/L3
B8: M1651 (antibody, V domains shown)
VH: EVQLVQSGAEVKKPGESLRISCKGSGYTFAPYWIEWVRQMPGKGLEWMGDILPGTGFTTYSPSFQGHVTISADKSISTAYLQWSSLKASDTAMYYCARSGYYGNSGFAYWGQGTLVTVSS
VL: DIVMTQTPLSLPVTPGEPASISCKSSQSLLYVYGQKNYLTWYLQKPGQSPQLLIYWASTRESGVPDRFSGSGSGTDFTLKISRVEAEDVGVYYCQNDFSWPLTFGQGTKLEIK
notes: complete MAb; FR4 is its own entry; also called H171/L162
B9: M1598 (antibody, V domains shown)
VH: EVQLVQSGAEVKKPGESLRISCKGSGYTFTPYWIEWVRQMPGKGLEWMGDILPGTGYTVYSPSFQGHVTISADKSISTAYLQWSSLKASDTAMYYCARSGYYGNSGFAYWGQGTLVTVSS
VL: DIVMTQTPLSLPVTPGEPASISCKSSQSLLSSGNQKNYLTWYLQKPGQSPQLLIYWASTRESGVPDRFSGSGSGTDFTLKISRVEAEDVGVYYCQNDYTYPLTFGQGTKLEIK
notes: complete MAb; FR4 is its own entry; also called H137/L3
B10: M1597 (antibody, V domains shown)
VH: EVQLVQSGAEVKKPGESLRISCKGSGYTFSSYWIEWVRQMPGKGLEWMGDILPGTGATHYSPSFQGHVTISADKSISTAYLQWSSLKASDTAMYYCARSGYYGNSGFAYWGQGTLVTVSS
VL: DIVMTQTPLSLPVTPGEPASISCKSSQSLLSSGNQKNYLTWYLQKPGQSPQLLIYWASTRESGVPDRFSGSGSGTDFTLKISRVEAEDVGVYYCQNDYTYPLTFGQGTKLEIK
notes: complete MAb; FR4 is its own entry; also called H134/L3
B11: M1592 (antibody, V domains shown)
VH: EVQLVQSGAEVKKPGESLRISCKGSGYTFSPHWIEWVRQMPGKGLEWMGDILPGSGYTIYSPSFQGHVTISADKSISTAYLQWSSLKASDTAMYYCARSGYYGNSGFAYWGQGTLVTVSS
VL: DIVMTQTPLSLPVTPGEPASISCKSSQSLLSSGNQKNYLTWYLQKPGQSPQLLIYWASTRESGVPDRFSGSGSGTDFTLKISRVEAEDVGVYYCQNDYTYPLTFGQGTKLEIK
notes: complete MAb; FR4 is its own entry; also called H165/L3
B12: M1587 (antibody, V domains shown)
VH: EVQLVQSGAEVKKPGESLRISCKGSGYTFIPYWIEWVRQMPGKGLEWMGDILPGSGFTTYSPSFQGHVTISADKSISTAYLQWSSLKASDTAMYYCARSGYYGNSGFAYWGQGTLVTVSS
VL: DIVMTQTPLSLPVTPGEPASISCKSSQSLLSSGNQKNYLTWYLQKPGQSPQLLIYWASTRESGVPDRFSGSGSGTDFTLKISRVEAEDVGVYYCQNDYTYPLTFGQGTKLEIK
B13: M1586 (antibody, V domains shown)
VH: EVQLVQSGAEVKKPGESLRISCKGSGYTFPTYWIEWVRQMPGKGLEWMGDIIPGTGWTNYSPSFQGHVTISADKSISTAYLQWSSLKASDTAMYYCARSGYYGNSGFAYWGQGTLVTVSS
VL: DIVMTQTPLSLPVTPGEPASISCKSSQSLLSSGNQKNYLTWYLQKPGQSPQLLIYWASTRESGVPDRFSGSGSGTDFTLKISRVEAEDVGVYYCQNDYTYPLTFGQGTKLEIK
notes: complete MAb; FR4 is its own entry; also called H164/L3
B14: M1653 (antibody, V domains shown)
VH: EVQLVQSGAEVKKPGESLRISCKGSGYTFAPYWIEWVRQMPGKGLEWMGDILPGTGFTTYSPSFQGHVTISADKSISTAYLQWSSLKASDTAMYYCARSGYYGNSGFAYWGQGTLVTVSS
VL: DIVMTQTPLSLPVTPGEPASISCKSSQSLLYTSNQKNYLTWYLQKPGQSPQLLIYWASTRESGVPDRFSGSGSGTDFTLKISRVEAEDVGVYYCQNDDYWPLTFGQGTKLEIK
notes: complete MAb; FR4 is its own entry; also called H171/L283
B15: M1649 (antibody, V domains shown)
VH: EVQLVQSGAEVKKPGESLRISCKGSGYTFAPYWIEWVRQMPGKGLEWMGDILPGTGFTTYSPSFQGHVTISADKSISTAYLQWSSLKASDTAMYYCARSGYYGNSGFAYWGQGTLVTVSS
VL: DIVMTQTPLSLPVTPGEPASISCKSSQSLLFSANQRNYLTWYLQKPGQSPQLLIYWASTRDSGVPDRFSGSGSGTDFTLKISRVEAEDVGVYYCQNDDTYPLTFGQGTKLEIK
notes: complete MAb; FR4 is its own entry; also called H171/L335
B16: M1588 (antibody, V domains shown)
VH: EVQLVQSGAEVKKPGESLRISCKGSGYTFGPFWIEWVRQMPGKGLEWMGDILPGSGYTNYSPSFQGHVTISADKSISTAYLQWSSLKASDTAMYYCARSGYYGNSGFAYWGQGTLVTVSS
VL: DIVMTQTPLSLPVTPGEPASISCKSSQSLLSSGNQKNYLTWYLQKPGQSPQLLIYWASTRESGVPDRFSGSGSGTDFTLKISRVEAEDVGVYYCQNDYTYPLTFGQGTKLEIK
notes: complete MAb; FR4 is its own entry; also called H179/L3
B17: M1594 (antibody, V domains shown)
VH: EVQLVQSGAEVKKPGESLRISCKGSGYTFPPYWIEWVRQMPGKGLEWMGDILPGTGYTVYSPSFQGHVTISADKSISTAYLQWSSLKASDTAMYYCARSGYYGNSGFAYWGQGTLVTVSS
VL: DIVMTQTPLSLPVTPGEPASISCKSSQSLLSSGNQKNYLTWYLQKPGQSPQLLIYWASTRESGVPDRFSGSGSGTDFTLKISRVEAEDVGVYYCQNDYTYPLTFGQGTKLEIK
notes: complete MAb; FR4 is its own entry; also called H158/L3
B18: M1589 (antibody, V domains shown)
VH: EVQLVQSGAEVKKPGESLRISCKGSGYTFGPHWIEWVRQMPGKGLEWMGDILPGTGYTNYSPSFQGHVTISADKSISTAYLQWSSLKASDTAMYYCARSGYYGNSGFAYWGQGTLVTVSS
VL: DIVMTQTPLSLPVTPGEPASISCKSSQSLLSSGNQKNYLTWYLQKPGQSPQLLIYWASTRESGVPDRFSGSGSGTDFTLKISRVEAEDVGVYYCQNDYTYPLTFGQGTKLEIK
notes: complete MAb; FR4 is its own entry; also called H187/L3
B19: M1595 (antibody, V domains shown)
VH: EVQLVQSGAEVKKPGESLRISCKGSGYTFYPYWIEWVRQMPGKGLEWMGDILPGTGFTNYSPSFQGHVTISADKSISTAYLQWSSLKASDTAMYYCARSGYYGNSGFAYWGQGTLVTVSS
VL: DIVMTQTPLSLPVTPGEPASISCKSSQSLLSSGNQKNYLTWYLQKPGQSPQLLIYWASTRESGVPDRFSGSGSGTDFTLKISRVEAEDVGVYYCQNDYTYPLTFGQGTKLEIK
notes: complete MAb; FR4 is its own entry; also called H160/L3

Tests used:
[1] = target: T1, recombinant extracellular domain (ECD) of human TF, amino acid 1-219 of the mature chain, C-terminal His6-tag (human, UniProt P13726 33-251); assay: Biacore
T1 construct: expressed in a mammalian system; used for ELISA and Biacore; biotinylated by NHS-ester for the Fab ELISA; also called His6-TF-ECD1-219; HumanTF1-219

[2] = target: Innovin, lyophilized recombinant human tissue factor combined with phospholipids (human, UniProt P13726 33-295, limits assumed); assay: cell-based or functional assay; further: test concentration or dose not given here

Binder | Kd [1] [nM] | koff [1] [s⁻¹] | kon [1] [M⁻¹ s⁻¹] | T½ Max (seconds), coagulation of human plasma [2] [s]
B1 | 0.42 | 0.0001 | 239000 | 189
B2 | 0.41 | 5.6e-05 | 134000 | 154
B3 | 0.49 | 9e-05 | 185000 | 205
B4 | 0.19 |  |  | 
B5 | 0.33 | 4.3e-05 | 131000 | 163
B6 | 0.11 |  |  | 
B7 | 0.69 | 0.000109 | 159000 | 180
B8 | 0.19 |  |  | 
B9 | 0.33 | 6.3e-05 | 192000 | 155
B10 | 0.8 | 6.6e-05 | 83400 | 157
B11 | 0.4 | 7.7e-05 | 191000 | 163
B12 |  |  |  | 202
B13 | 0.78 | 0.000143 | 184000 | 200
B14 | 0.16 |  |  | 
B15 | 0.17 |  |  | 
B16 | 0.35 | 6e-05 | 173000 | 207
B17 | 0.35 | 4.3e-05 | 124000 | 165
B18 | 0.4 | 7e-05 | 174000 | 202
B19 | 0.39 | 6.8e-05 | 176000 | 163
